The target of this test is T1, heregulin (125I-HRG) (human, UniProt Q02297).
T1 chain: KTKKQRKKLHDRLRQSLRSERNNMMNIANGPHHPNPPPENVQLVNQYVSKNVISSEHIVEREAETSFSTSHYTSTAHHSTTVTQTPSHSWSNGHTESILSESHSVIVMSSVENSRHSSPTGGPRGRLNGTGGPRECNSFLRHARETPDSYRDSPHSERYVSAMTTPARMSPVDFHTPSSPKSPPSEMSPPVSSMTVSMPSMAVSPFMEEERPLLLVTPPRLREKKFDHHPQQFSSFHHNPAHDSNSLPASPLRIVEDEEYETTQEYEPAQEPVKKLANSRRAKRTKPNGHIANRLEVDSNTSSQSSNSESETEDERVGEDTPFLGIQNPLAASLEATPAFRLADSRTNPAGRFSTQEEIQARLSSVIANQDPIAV
The test is described as follows: other 125I-HRG radioligand binding, Scatchard.

These results are taken from patent US8226935 (dated 2012).

B1: ErbB4-IgG (antibody)
chain: QSVCAGTENKLSSLSDLEQQYRALRKYYENCEVVMGNLEITSIEHNRDLSFLRSVREVTGYVLVALNQFRYLPLENLRIIRGTKLYEDRYALAIFLNYRKDGNFGLQELGLKNLTEILNGGVYVDQNKFLCYADTIHWQDIVRNPWPSNLTLVSTNGSSGCGRCHKSCTGRCWGPTENHCQTLTRTVCAEQCDGRCYGPYVSDCCHRECAGGCSGPKDTDCFACMNFNDSGACVTQCPQTFVYNPTTFQLEHNFNAKYTYGAFCVKKCPHNFVVDSSSCVRACPSSKMEVEENGIKMCKPCTDICPKACDGIGTGSLMSAQTVDSSNIDKFINCTKINGNLIFLVTGIHGDPYNAIEAIDPEKLNVFRTVREITGFLNIQSWPPNMTDFSVFSNLVTIGGRVLYSGLSLLILKQQGITSLQFQSLKEISAGNIYITDNSNLCYYHTINWTTLFSTINQRIVIRDNRKAENCTAEGMVCNHLCSSDGCWGPGPDQCLSCRRFSRGRICIESCNLYDGEFREFENGSICVECDPQCEKMEDGLLTCHGPGPDNCTKCSHFKDGPNCVEKCPDGLQGANSFIFKYADPDRECHPCHPNCTQGCNGPTSHDCIYYPWTGHSTLPQHARTP
modifications: homodimeric ECD-human IgG Fc immunoadhesin
B1 gave a Kd of 4.98 nM. This counts as single-digit nanomolar.

B2: ErbB3/4-IgG (antibody)
chain 1: not shown
chain 2: B1 chain
modifications: heterodimeric ECD-human IgG Fc immunoadhesin (mixture with homodimers)
The molecule B2 showed a Kd of 5.98 nM.

As usually defined, the Kd is the constant that tells how readily two partners part at equilibrium. Higher therefore signals weaker binding.
